Data: the supplement of paper PMC10567573

B1: ZNF232 (parent)
chain: HSGEKPFICKECGKAYGWCSELIR

Variants of: B1
Test: protein stability index of a GFP-peptide fusion (GPS, HEK-293T) (PSI 1-6); higher = more stable
Settings: c terminus: a fixed tail appended
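Also: lentivirally expressed fusions sorted by FACS into six bins by GFP to DsRed ratio, PSI derived from sequencing read proportions per bin multiplied by bin number.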

Compared with K10W, K10Y is higher in protein stability index: 1.84 for the first, 1.99 for the second.

Compared with E11A, E11C is higher in protein stability index: 2.22 for the first, 2.3 for the second.

Going from E11D to E11F, the protein stability index falls from 1.88 to 1.77.

Going from E11G to E11H, the protein stability index rises from 2.19 to 2.24.

First: E11I
Second: E11K
The protein stability index of the first is higher: 2.27 for the first, 1.62 for the second.

First: E11L
Second: E11M
The protein stability index of the first is lower: 1.7 for the first, 2.02 for the second.

Compared with E11N, E11P is lower in protein stability index: 1.61 for the first, 1.58 for the second.

Compared with E11Q, E11R is higher in protein stability index: 1.52 for the first, 2.65 for the second.

First: E11S
Second: E11T
The protein stability index of the first is lower: 2.31 for the first, 2.48 for the second.

Going from E11V to E11W, the protein stability index rises from 2.04 to 2.14.

Going from E11Y to C12A, the protein stability index falls from 1.98 to 1.85.

Compared with C12D, C12E is higher in protein stability index: 2.44 for the first, 2.64 for the second.

Going from C12F to C12G, the protein stability index falls from 2.38 to 2.15.

First: C12H
Second: C12I
The protein stability index of the first is lower: 1.43 for the first, 2.5 for the second.

Going from C12K to C12L, the protein stability index rises from 2.33 to 3.03.

Going from C12M to C12N, the protein stability index falls from 2.81 to 2.72.

Compared with C12P, C12Q is higher in protein stability index: 1.81 for the first, 1.88 for the second.

Compared with C12R, C12S is higher in protein stability index: 1.79 for the first, 2.42 for the second.

First: C12T
Second: C12V
The protein stability index of the first is lower: 2.21 for the first, 2.79 for the second.

First: C12W
Second: C12Y
The protein stability index of the first is higher: 2.18 for the first, 2.15 for the second.

First: G13A
Second: G13C
The protein stability index of the first is higher: 2.29 for the first, 2.22 for the second.

First: G13D
Second: G13E
The protein stability index of the first is lower: 1.97 for the first, 2.14 for the second.

First: G13F
Second: G13H
The protein stability index of the first is lower: 1.49 for the first, 1.77 for the second.

First: G13I
Second: G13K
The protein stability index of the first is higher: 1.76 for the first, 1.42 for the second.

Going from G13L to G13M, the protein stability index rises from 1.49 to 1.89.

First: G13N
Second: G13P
The protein stability index of the first is higher: 2.1 for the first, 1.65 for the second.

First: G13Q
Second: G13R
The protein stability index of the first is lower: 1.44 for the first, 1.7 for the second.

Compared with G13S, G13T is lower in protein stability index: 1.88 for the first, 1.65 for the second.

Going from G13V to G13W, the protein stability index falls from 2.39 to 1.53.

Compared with G13Y, K14A is higher in protein stability index: 2.12 for the first, 2.39 for the second.

First: K14C
Second: K14D
The protein stability index of the first is higher: 2.73 for the first, 2.01 for the second.

First: K14E
Second: K14F
The protein stability index of the first is lower: 1.61 for the first, 2.02 for the second.

Compared with K14G, K14H is lower in protein stability index: 2.8 for the first, 1.61 for the second.

Compared with K14I, K14L is lower in protein stability index: 2.04 for the first, 1.44 for the second.

First: K14M
Second: K14N
The protein stability index of the first is higher: 1.96 for the first, 1.67 for the second.

Compared with K14P, K14Q is higher in protein stability index: 1.53 for the first, 1.87 for the second.

Compared with K14R, K14S is higher in protein stability index: 1.61 for the first, 1.7 for the second.

Going from K14T to K14V, the protein stability index falls from 2.24 to 1.71.

Compared with K14W, K14Y is lower in protein stability index: 2.68 for the first, 1.98 for the second.

First: A15C
Second: A15D
The protein stability index of the first is higher: 2.76 for the first, 1.69 for the second.

Compared with A15E, A15F is higher in protein stability index: 1.81 for the first, 1.92 for the second.

Going from A15G to A15H, the protein stability index rises from 1.45 to 1.89.

First: A15I
Second: A15K
The protein stability index of the first is higher: 2.34 for the first, 1.69 for the second.

Going from A15L to A15M, the protein stability index rises from 1.49 to 1.9.

Compared with A15N, A15P is higher in protein stability index: 1.83 for the first, 2.29 for the second.

Going from A15Q to A15R, the protein stability index rises from 2.11 to 2.14.

Going from A15S to A15T, the protein stability index falls from 2.14 to 2.05.

First: A15V
Second: A15W
The protein stability index of the first is higher: 2.01 for the first, 1.75 for the second.

Compared with A15Y, Y16A is lower in protein stability index: 1.85 for the first, 1.58 for the second.

Going from Y16C to Y16D, the protein stability index falls from 2.5 to 2.16.

Compared with Y16E, Y16F is lower in protein stability index: 1.75 for the first, 1.6 for the second.

Compared with Y16G, Y16H is higher in protein stability index: 1.93 for the first, 3.04 for the second.

Compared with Y16I, Y16K is higher in protein stability index: 2.06 for the first, 2.11 for the second.

Going from Y16L to Y16M, the protein stability index rises from 1.25 to 1.94.

Going from Y16N to Y16P, the protein stability index falls from 1.88 to 1.61.

Going from Y16Q to Y16R, the protein stability index falls from 2.33 to 2.06.

Going from Y16S to Y16T, the protein stability index rises from 1.99 to 2.49.

First: Y16V
Second: Y16W
The protein stability index of the first is lower: 1.54 for the first, 2.1 for the second.

Going from G17A to G17C, the protein stability index rises from 1.84 to 3.39.

Going from G17D to G17E, the protein stability index falls from 2.2 to 1.82.

Compared with G17F, G17H is higher in protein stability index: 1.97 for the first, 2.09 for the second.

Compared with G17I, G17K is lower in protein stability index: 2.51 for the first, 1.6 for the second.

Compared with G17L, G17M is higher in protein stability index: 1.82 for the first, 2.2 for the second.

Going from G17N to G17P, the protein stability index rises from 1.38 to 2.54.

Compared with G17Q, G17R is lower in protein stability index: 2.2 for the first, 1.65 for the second.

Going from G17S to G17T, the protein stability index falls from 1.8 to 1.56.

First: G17V
Second: G17W
The protein stability index of the first is lower: 1.52 for the first, 2.2 for the second.

First: G17Y
Second: W18A
The protein stability index of the first is higher: 2.24 for the first, 1.85 for the second.

Going from W18C to W18D, the protein stability index rises from 2.18 to 2.67.

First: W18E
Second: W18F
The protein stability index of the first is higher: 2.95 for the first, 1.55 for the second.

Going from W18G to W18H, the protein stability index falls from 2.43 to 2.28.

First: W18I
Second: W18K
The protein stability index of the first is higher: 2.46 for the first, 1.78 for the second.

First: W18L
Second: W18M
The protein stability index of the first is lower: 2.09 for the first, 2.57 for the second.

Compared with W18N, W18P is lower in protein stability index: 2.03 for the first, 1.81 for the second.

Compared with W18Q, W18R is lower in protein stability index: 2.49 for the first, 1.9 for the second.

First: W18S
Second: W18T
The protein stability index of the first is higher: 2.67 for the first, 1.83 for the second.

Going from W18V to W18Y, the protein stability index falls from 2.25 to 1.79.

First: C19A
Second: C19D
The protein stability index of the first is higher: 2.06 for the first, 1.94 for the second.

Compared with C19E, C19F is lower in protein stability index: 2.5 for the first, 1.69 for the second.

First: C19G
Second: C19H
The protein stability index of the first is higher: 1.89 for the first, 1.82 for the second.

Compared with C19I, C19K is higher in protein stability index: 1.89 for the first, 2.08 for the second.

Compared with C19L, C19M is higher in protein stability index: 1.69 for the first, 2.13 for the second.

First: C19N
Second: C19P
The protein stability index of the first is higher: 2.08 for the first, 2.03 for the second.

For C19Q, the protein stability index was 2.39.
